US20210269836A1 (JOHN INNES CENTRE, published 2021)

T1: LAMT-YFPN (loganic acid methyltransferase fused to the N-terminal split YFP fragment) (UniProt B2KPR3 1-371)
T1 construct: Control construct of the BiFC assay; also called LAMT-YN; not shown: N-terminal split YFP fragment (YFPN)
T1 sequence (looked up): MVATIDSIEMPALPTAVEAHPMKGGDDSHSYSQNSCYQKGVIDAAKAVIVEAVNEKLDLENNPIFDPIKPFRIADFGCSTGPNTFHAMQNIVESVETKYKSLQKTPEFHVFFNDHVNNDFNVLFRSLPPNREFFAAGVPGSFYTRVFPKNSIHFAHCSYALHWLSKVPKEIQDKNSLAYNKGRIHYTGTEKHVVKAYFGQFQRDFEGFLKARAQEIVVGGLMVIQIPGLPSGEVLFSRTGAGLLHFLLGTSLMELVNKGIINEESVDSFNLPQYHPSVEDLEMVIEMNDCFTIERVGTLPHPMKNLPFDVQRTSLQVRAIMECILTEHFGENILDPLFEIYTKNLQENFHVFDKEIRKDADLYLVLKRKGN

T2: LAMT-YFPC (loganic acid methyltransferase fused to the C-terminal split YFP fragment) (UniProt B2KPR3 1-371)
T2 construct: Control construct of the BiFC assay; also called LAMT-YC; not shown: C-terminal split YFP fragment (YFPC)
T2 sequence (looked up): T1 sequence (looked up)

B1: YFPC-DPAS (dehydroprecondylocarpine acetate synthase fused at its N-terminus to the C-terminal split YFP fragment) (enzyme)
chain: MAGKSAEEEHPIKAYGWAVKDRTTGILSPFKFSRRATGDDDVRIKILYCGICHTDLASIKNEYEFLSYPLVPGMEIVGIATEVGKDVTKVKVGEKVALSAYLGCCGKCYSCVNELENYCPEVIIGYGTPYHDGTICYGGLSNETVANQSFVLRFPERLSPAGGAPLLSAGITSFSAMRNSGIDKPGLHVGVVGLGGLGHLAVKFAKAFGLKVTVISTTSKKDDAINGLGADGFLLSRDDEQMKAAIGTLDAIIDTLAVVHPIAPLLDLLRSQGKFLLLGAPSQSLELPPIPLLSGGKSIIGSAAGNVKQTQEMLDFAAEHDITANVEIIPIEYINTAMERLDKGDVRYRFVVDIENTLTPPSEL
notes: BiFC fusion expressed transiently inside C. roseus cells; also called YC-DPAS; dihydroprecondylocarpine acetate synthase; not shown: C-terminal split YFP fragment (YFPC) from plasmid pSCA-SPYCE (MR)
B2: TS-YFPN (Tabersonine Synthase fused at its C-terminus to the N-terminal split YFP fragment) (enzyme)
chain: MGSSDETIFDLPPYIKVFKDGRVERLHSSPYVPPSLNDPETGGVSWKDVPISSVVSARIYLPKINNHDEKLPIIVYFHGAGFCLESAFKSFFHTYVKHFVAEAKAIAVSVEFRLAPENHLPAAYEDCWEALQWVASHVGLDISSLKTCIDKDPWIINYADFDRLYLWGDSTGANIVHNTLIRSGKEKLNGGKVKILGAILYYPYFLIRTSSKQSDYMENEYRSYWKLAYPDAPGGNDNPMINPTAENAPDLAGYGCSRLLISMVADEARDITLLYIDALEKSGWKGELDVADFDKQYFELFEMETEVAKNMLRRLASFIK
notes: BiFC fusion expressed transiently inside C. roseus cells; also called TS-YN; not shown: N-terminal split YFP fragment (YFPN) from plasmid pSCA-SPYNE173

Assays:
[1] = target: T1, LAMT-YFPN (loganic acid …); assay: BiFC in transiently transformed C. roseus cells
Method: (§1) Interaction of DPAS with TS and CS. DPAS/CS and DPAS/TS interactions were analyzed by BiFC in C. roseus cells transiently transformed by distinct combinations of plasmids encoding fusions with the two split YFP fragments, YFPN (YN) and YFPC (YC) as indicated on each pictures of the first row (A, D, G, J, M). Identification of transiently transformed cells was achieved by co-transformation with the nucleus (nuc)-CFP marker(B, E, H, K, N). […] Interactions of DPAS and TS with loganic acid methyltransferase (LAMT)-YN and LAMT-YC were also studied to evaluate the specificity of DPAS/TS interactions. Cell morphology is observed with differential interference contrast (DIC) (C, F, I, L, O). Scale bars, 10 μm.
(§2) Transient transformation of C. roseus cells by particle bombardment and fluorescence imaging were performed. Briefly, C. roseus plated cells were bombarded with DNA-coated gold particles (1 μm) and 1,100 psi rupture disc at a stopping-screen-to-target distance of 6 cm, using the Bio-Rad PDS1000/He system. Cells were cultivated for 16 h to 38 h (DPAS, CS and TS) or up to 96 h for PAS before being harvested and observed. The subcellular localization was determined using an Olympus BX-51 epifluorescence microscope equipped with an Olympus DP-71 digital camera and a combination of YFP and CFP filters. […]

[2] = target: T2, LAMT-YFPC (loganic acid …); assay: BiFC in transiently transformed C. roseus cells
Method: as §1, §2

Row | Binder | binding result [1] | binding result [2]
1 | B1 | no binding | 
2 | B2 |  | no binding
